According to paper PMC5476288 (PLoS Pathogens, 2017):

Biological target: T1, Flag-IRF3 (human, UniProt Q14653 1-427)
T1 construct: not shown: Flag, N-terminal, kept
T1 sequence (looked up): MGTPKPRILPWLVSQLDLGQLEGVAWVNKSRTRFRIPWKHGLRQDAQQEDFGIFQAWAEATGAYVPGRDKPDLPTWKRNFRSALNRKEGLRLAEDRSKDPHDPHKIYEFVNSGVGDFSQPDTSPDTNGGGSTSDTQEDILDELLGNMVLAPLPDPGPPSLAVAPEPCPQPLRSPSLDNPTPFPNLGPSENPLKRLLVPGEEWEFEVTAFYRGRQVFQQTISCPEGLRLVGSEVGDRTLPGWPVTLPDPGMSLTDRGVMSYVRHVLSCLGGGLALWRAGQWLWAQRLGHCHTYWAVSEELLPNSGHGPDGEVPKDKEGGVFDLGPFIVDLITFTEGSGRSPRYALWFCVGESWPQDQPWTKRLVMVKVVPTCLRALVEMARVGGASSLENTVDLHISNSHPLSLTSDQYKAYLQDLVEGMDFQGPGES
Experiment: pull-down; lysates of 293T cells with ectopic Flag-TBK1 or Flag-IRF3 incubated with GST or the GST-ERRα fusion protein
Conditions: one partner purified

binding result: binds
B1: GST-ERRα fusion protein (natural protein, UniProt P11474 1-423, looked up)
chain: MSSQVVGIEPLYIKAEPASPDSPKGSSETETEPPVALAPGPAPTRCLPGHKEEEDGEGAGPGEQGGGKLVLSSLPKRLCLVCGDVASGYHYGVASCEACKAFFKRTIQGSIEYSCPASNECEITKRRRKACQACRFTKCLRVGMLKEGVRLDRVRGGRQKYKRRPEVDPLPFPGPFPAGPLAVAGGPRKTAAPVNALVSHLLVVEPEKLYAMPDPAGPDGHLPAVATLCDLFDREIVVTISWAKSIPGFSSLSLSDQMSVLQSVWMEVLVLGVAQRSLPLQDELAFAEDLVLDEEGARAAGLGELGAALLQLVRRLQALRLEREEYVLLKALALANSDSVHIEDAEAVEQLREALHEALLEYEAGRAGPGGGAERRRAGRLLLTLPLLRQTAGKVLAHFYGVKLEGKVPMHKLFLEMLEAMMD
notes: also called estrogen-related receptor α
